Laboratory results from the supplement of paper PMC10201428.
± gives the standard deviation of the averaged measurements.

What was measured:
[1] = tested on: VchCAST RNA-guided transposition machinery (E. coli BL21(DE3) host, lacZ target); test: relative integration efficiency (T-RL orientation) vs wild-type transposon end (log2 (normalized fold change)); transposon end mutated: right end (5 bp flank + 75 bp right end); higher = more efficient transposition
How it was run: (§1)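 Each barcoded pool, 1549 left-end or 1849 right-end transposon variants in a pUC57 mini-transposon donor, went into E. coli BL21(DE3) with a T7-driven effector plasmid (CRISPR array, tniQ-cas8-cas7-cas6, tnsA-tnsB-tnsC). Plates contained 0.1 mM IPTG and were held at 37°C for 18 h. Input plasmids and genomic integration junctions were PCR-amplified and read by Illumina sequencing, with two biological output replicates and four reference barcodes. Relative integration efficiency is the fold change of output over input barcode abundance, normalised to the reference barcodes and log-transformed.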

[2] = tested on: VchCAST RNA-guided transposition machinery (E. coli BL21(DE3) host, lacZ target); test: relative integration efficiency (T-LR orientation) vs wild-type transposon end (log2 (normalized fold change)); transposon end mutated: right end (5 bp flank + 75 bp right end); higher = more efficient transposition
How it was run: as §1

Sequence | relative integration efficiency (log2) [1] | relative integration efficiency (log2) [2]
ACATTTGTTGATACAACCATAAAATGATAATTACTCTGATCATAGTCAGACCAACATTGCTACGACCCGTATTCGCACCACCCATAAATTGATAATTATCAGTGGGTATTTAACTATAACGCGACAC | -2.38 ± 0.56 | 1.01 ± 0.035
ACATTTGTTGATACAACCATAAAATGATCATTACACCCATCAATTGATAATTATCACACCCAATTTAACTATAACGCTCTGATCATAGTCAGACCAACATTGCTACGACCCGTATTCGCACCGACAC | -2.98 ± 0.5 | 0.697 ± 0.18
ACATTTGTTGATACAACCATAAAATGATAATTACAACCATAAGTTGATATTTTTCACACCCATAAATTGATATTGCCTCTGATCATAGTCAGACCAACATTGCTACGACCCGTATTCGCACCGACAC | -0.349 ± 0.2 | 0.0596 ± 0.086
ACATTTGTACATACAACCATAAAATGATAATTACACCCATAAATTGATAATTATCACACCCATAAATTGATATTGCCTCTGATCATAGTCAGACCAACATTGCTACGACCCGTATTCGCACCGACAC | -0.312 ± 0.12 | -1.97 ± 0.36
ACATTTGTGGATACAACCATAAAATGATAATTACACCCATAAATTCATTATTATCACACCCAATTTAACTATAACGCTCTGATCATAGTCAGACCAACATTGCTACGACCCGTATTCGCACCGACAC | -2.59 ± 0.53 | 0.908 ± 0.36
ACATTTGTTGATACACCCATAAATTGATATTGCCAACCATAAAATGATAATTATCACAACCATAAAGTGATATTTACTCTGATCATAGTCAGACCAACATTGCTACGACCCGTATTCGCACCGACAC | -0.59 ± 0.12 | -0.327 ± 0.1
ACATTTGTTGATACAACCATAAAATGATAATTACACCCATAAATTGATAATTATCACACCCATAAATTGATACTCTGATCATAGTCAGACCAACATTGCTACGACCCGTATTCGCACCGACACTGAC | 0.0156 ± 0.031 | 0.201 ± 0.14
ACATTTGTTGATACAACCATAAAATGATAATTACACCCATAAATTGATTTAAATCACACCCATAAATTGATATTGCCTCTGATCATAGTCAGACCAACATTGCTACGACCCGTATTCGCACCGACAC | -0.801 ± 0.11 | -0.261 ± 0.15
ACATTTGTTGATACAACCATAAAGTGATATTTACACCCATAAATTGATATTGCTCACACCCATAAATTGATATTGCCTCTGATCATAGTCAGACCAACATTGCTACGACCCGTATTCGCACCGACAC | -0.333 ± 0.062 | 0.438 ± 0.27
ACATTTGTTGATACAACCATAAAATGATAAGTACACCCATAAATTGATAAGTATCACACCCATAAATTGATATGGCCTCTGATCATAGTCAGACCAACATTGCTACGACCCGTATTCGCACCGACAC | -0.35 ± 0.029 | 0.407 ± 0.12
ACATTTGTTGATACATCCATAAAATGATAATTACAGCCATAAATTGATAATTATCACAGCCATAAATTGATATTGCCTCTGATCATAGTCAGACCAACATTGCTACGACCCGTATTCGCACCGACAC | -0.851 ± 0.072 | -0.607 ± 0.2
ACATTTGTTGATACAACCATTAAATGATAATTCCACCCATAATTTGATAATTATCACACCCAATTTAACTATAACGCTCTGATCATAGTCAGACCAACATTGCTACGACCCGTATTCGCACCGACAC | -0.743 ± 0.14 | 2.52 ± 0.061
ACATTTGCTGATAGAACCATATAATGATAATAACACCCATAAAATGATAATTATCACACCCAATTTAACTATAACGCTCTGATCATAGTCAGACCAACATTGCTACGACCCGTATTCGCACCGACAC | -2.94 ± 0.33 | -1.38 ± 0.21
ACATTTGTTCATCCAACCATAAAATGATAATTACACCCATAAATGGATAATTATCACACCCAATTTAACTATAACGCTCTGATCATAGTCAGACCAACATTGCTACGACCCGTATTCGCACCGACAC | -2.08 ± 0.37 | -0.431 ± 0.44
ACATTTGTCGATACAACCATAAAACGATAATTACACCCATAAATTCATCATTATCACACCCAATTTAACTATAACGCTCTGATCATAGTCAGACCAACATTGCTACGACCCGTATTCGCACCGACAC | -2.2 ± 0.19 | 1.48 ± 0.17
ACATTTCTCGATACAACCATAAAATGATAATTACACCCATAAATTCATAATTATCACACCCAATTTAACTATAACGCTCTGATCATAGTCAGACCAACATTGCTACGACCCGTATTCGCACCGACAC | -1.95 ± 0.18 | 0.496 ± 0.27
ACATTTCTTGATACAACCATAAAATGATAATTACACCCATAAATTGATCATTATCACACCCAATTTAACTATAACGCTCTGATCATAGTCAGACCAACATTGCTACGACCCGTATTCGCACCGACAC | -1.92 ± 0.52 | 1.34 ± 0.11
ACATTTGTTGATACAACCATAAAATGATAATTACAGGCATAAATTGATAATTATCACACCCATAAATTGATATTGCCTCTGATCATAGTCAGACCAACATTGCTACGACCCGTATTCGCACCGACAC | -0.00584 ± 0.032 | -0.52 ± 0.19

Sequence | relative integration efficiency (log2) [1] | relative integration efficiency (log2) [2]
ACATTTGTTGATACAACCATAAAATGATAATTACACCCATAAATTGATAATTATCACACCGTTAAATTGATATTGCCTCTGATCATAGTCAGACCAACATTGCTACGACCCGTATTCGCACCGACAC | -0.625 ± 0.1 | 1.85 ± 0.26
ACATTTGTTGATACAACCATAAGTTGATATTTTCAACCATAAGTTGATATTTTTCACACCCATAAATTGATAATTACTCTGATCATAGTCAGACCAACATTGCTACGACCCGTATTCGCACCGACAC | 0.0466 ± 0.027 | -0.132 ± 0.17
ACATTTGTTGATACATGGTTAAAATGATAATTACACCCATAAATTGATAATTATCACACCCATAAATTGATATTGCCTCTGATCATAGTCAGACCAACATTGCTACGACCCGTATTCGCACCGACAC | -1.62 ± 0.088 | -2.05 ± 0.37
ACATTTGTTGATACAACCATAAAATGGTAATTCCACCCCTAAATTGATAATTATCACACCCAATTTAACTATAACGCTCTGATCATAGTCAGACCAACATTGCTACGACCCGTATTCGCACCGACAC | -3.6 ± 0.27 | -0.518 ± 0.25
ACATTTGTTGATACACCCATAAATTGATATTGCCACCCATAAATTGATAATTATCACACCCATAAATTGATAATTACTCTGATCATAGTCAGACCAACATTGCTACGACCCGTATTCGCACCGACAC | -0.597 ± 0.26 | -0.0383 ± 0.28
ACATTTGATGATACAACCATATAATGATAATAACACCCATAAAATGATAATTATCACACCCAATTTAACTATAACGCTCTGATCATAGTCAGACCAACATTGCTACGACCCGTATTCGCACCGACAC | -1.61 ± 0.26 | 1.073 ± 0.0088
ACATTTGTTGATACAACCATAAAATGATAATTACACCCATAATATGATAATTATCACACCCATAAATTGATATTGCCTCTGATCATAGTCAGACCAACATTGCTACGACCCGTATTCGCACCGACAC | -0.297 ± 0.039 | -0.175 ± 0.045
ACATTTGTTGATACAACCATAAAATGATAATTACACCCATAAATTGATAATTATCACACCCATAAATTGATATTGCCTCTTCATGCAGATTTGAACAGTAAGTTTACGACATTTTCAGCACCGACAC | -0.604 ± 0.37 | 1.32 ± 0.14
ACATTTGTTGATACAACCATAAAATGATAATTACAACCATAAGTTGATATTTTTCACAACCATATATTGATATCTCCTCTGATCATAGTCAGACCAACATTGCTACGACCCGTATTCGCACCGACAC | -0.125 ± 0.19 | 0.235 ± 0.079
ACATTTGTTGATACAACCATTAAATGATAATTCCACCCAAAAATTGATAATTATCACACCCAATTTAACTATAACGCTCTGATCATAGTCAGACCAACATTGCTACGACCCGTATTCGCACCGACAC | -0.813 ± 0.13 | 2.42 ± 0.24
ACATTGGTTGATACAACCATAAAATGATAATTACACCCATAAATTCATCATTATCACACCCAATTTAACTATAACGCTCTGATCATAGTCAGACCAACATTGCTACGACCCGTATTCGCACCGACAC | -7.43 ± 0.34 | -5.884 ± 0.042
ACATTTGTTGATACAACCATAAAATGATAATTAATCACCCATAAATTGATAATTATCAACAAACGCCCGGTCGCGGTACTCTGATCATAGTCAGACCAACATTGCTACGACCCGTATTCGCACCGAC | -1.83 ± 0.42 | 1.09 ± 0.077
ACATTTGTTGATACAACCATCAAATGATAATTACACCCATACATTGATAATTATCACACCCAATTTAACTATAACGCTCTGATCATAGTCAGACCAACATTGCTACGACCCGTATTCGCACCGACAC | -2.9 ± 0.42 | -0.0308 ± 0.27
ACATTTGTTGATACAACCATAAAATGATAATTACACCCATAAATTGATAATTATCAGTCCCATAAATTGATATTGCCTCTGATCATAGTCAGACCAACATTGCTACGACCCGTATTCGCACCGACAC | -0.441 ± 0.031 | 1.51 ± 0.031
ACATTTGTTGATACAACCATAAAATGATAATTATAATTATCATTTTATGGTTGTCATAATTATCATTTTATGGTTGCTCTGATCATAGTCAGACCAACATTGCTACGACCCGTATTCGCACCGACAC | -2.61 ± 0.67 | 0.158 ± 0.76
ACATTTGTTGATACAACCATAAGTTGATATTTTCAACCATAAGTTGATATTTTTCACAACCATAAGTTGATATTTTCTCTGATCATAGTCAGACCAACATTGCTACGACCCGTATTCGCACCGACAC | 0.214 ± 0.079 | -0.207 ± 0.25
ACATTTGTTGATACAACCATAAAATCATAATTACCCCCATAAATTGATAATTATCACACCCCATTTAACTATAACGCTCTGATCATAGTCAGACCAACATTGCTACGACCCGTATTCGCACCGACAC | -3.3 ± 0.19 | 0.532 ± 0.1
